Measurements published in the supplement of paper PMC9170038.

System: MS2 coat protein
Assay: apparent KD of MS2 coat protein; designed switch direction (-1 OFF switch, 1 ON switch): 1; higher = weaker reporter binding
Summary of the method: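 SNAP-549-labelled MS2 coat protein was titrated, doubling from 0.7 or 1.5 nM to 3 µM, over designed RNA switches transcribed on Illumina chips by stalled E. coli RNA polymerase. Runs were done without input, with 200 uM small-molecule ligand, or with an oligonucleotide input. Apparent KD is the per-design median over clusters of curve-fitted normalised fluorescence.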

[1] = input ligand: microRNA oligo, concentration not stated
[2] = Eterna round: R95, input ligand: FMN 200 uM
[3] = Eterna round: R95, input ligand: microRNA oligo, concentration not stated
[4] = Eterna round: R95, input ligand: none

Sequence: CGAAAGAAGCGAGGAUAUGCAGAGGAUCACCCUGCAGAAGGCGCAAAAGCGAGGAUAUGCAGAGGAUCACCCUGCAGAAGGCGC [pwkr ssNG DX.32] (Eterna round: R96, puzzle: Same State NG 1)
- apparent KD of MS2 coat protein (input ligand: FMN 200 uM): 20.2 nM
- apparent KD of MS2 coat protein [1]: 20.5 nM
- apparent KD of MS2 coat protein (input ligand: none): 18.1 nM

Sequence: CGAACACGUUGAGGAUAUGCAGAGGAUCACCCUGUAGAAGGCAACAGAUGAGGAUAUGCAGAGGAUCACCCUGUAGAAGGCAAC [pwkr ssNG DX.5] (Eterna round: R96, puzzle: Same State NG 1)
- apparent KD of MS2 coat protein (input ligand: FMN 200 uM): 54.3 nM
- apparent KD of MS2 coat protein [1]: 68.6 nM
- apparent KD of MS2 coat protein (input ligand: none): 116 nM

Sequence: CGACACACGGCAGGAUAUCGAUUCCAAAGGAAUCGAGAAGGGCCUCAUGUCGUGGAAACGUGACAUGAGGAUCACCCAUGUCGC [Omei SS(NG)1 Cv17] (Eterna round: R96, puzzle: Same State NG 1)
- apparent KD of MS2 coat protein (input ligand: FMN 200 uM): 17.2 nM
- apparent KD of MS2 coat protein [1]: 11 nM
- apparent KD of MS2 coat protein (input ligand: none): 16.9 nM

Sequence: CGACACACGGCAGGAUAUCGAUUCCAAAGGAAUCGAGAAGGGCCUCAUGUCGUGGAAACGUGACAUGAGGAUCACCCAUGUUGC [Omei SS(NG)1 Cv18] (Eterna round: R96, puzzle: Same State NG 1)
- apparent KD of MS2 coat protein (input ligand: FMN 200 uM): 26.8 nM
- apparent KD of MS2 coat protein [1]: 11.6 nM
- apparent KD of MS2 coat protein (input ligand: none): 24.6 nM

Sequence: CGAUACACGGCAGGAUAUCGAUUCCAAAGGAAUCGAGAAGGGCCUCAUGUCGUGGAAACGUGACAUGAGGAUCACCCAUGUUGC [Omei SS(NG)1 Cv20] (Eterna round: R96, puzzle: Same State NG 1)
- apparent KD of MS2 coat protein (input ligand: FMN 200 uM): 84.4 nM
- apparent KD of MS2 coat protein [1]: 36.1 nM
- apparent KD of MS2 coat protein (input ligand: none): 55.4 nM

Sequence: CGAUGAUACUUAGGAAGAAGAGUUGAGGUACAUGAGGAUCACCCAUGUCGGAGCUUUUUGCUCGUCAUGAACAGGAA [JR_SHM208a_Sub007] (puzzle: Sensor for hsa-mir-208a)
- apparent KD of MS2 coat protein [2]: 65.2 nM
- apparent KD of MS2 coat protein [3]: 34.8 nM
- apparent KD of MS2 coat protein [4]: 79.5 nM

Sequence: CGAUUCGCCAGUACAUGAGGAUCACCCAUGUAGAGACCAGUUUAGGAUAUCUUUGCGACGUGCUGAGAGAAGGGAAUAUGGAGC [Eternabot solution 45] (Eterna round: R96, puzzle: Same State NG 3)
- apparent KD of MS2 coat protein (input ligand: FMN 200 uM): 33.1 nM
- apparent KD of MS2 coat protein [1]: 27.5 nM
- apparent KD of MS2 coat protein (input ligand: none): 37.4 nM

Sequence: CGCAUCCUUGUUACAUGAGGAUCACCCAUGUUUUCGAGUGGAGAGGAUAUCGUAACAGUAUUUUUCGAGAAGGCUCUAUAGUUU [JR_SSNG3_Sub080] (Eterna round: R96, puzzle: Same State NG 3)
- apparent KD of MS2 coat protein (input ligand: FMN 200 uM): 41.7 nM
- apparent KD of MS2 coat protein [1]: 37.6 nM
- apparent KD of MS2 coat protein (input ligand: none): 56.9 nM

Sequence: CGCCAGAGAACAGGAUAUGGGCCGCAGCCUAUGGGCCGCGAACUCACAUGAGGAUCACCCAUGUCCCAGAAGGGUUCCUGGCUG [Tiusonon] (Eterna round: R96, puzzle: Same State NG 2)
- apparent KD of MS2 coat protein (input ligand: FMN 200 uM): 154 nM
- apparent KD of MS2 coat protein [1]: 596 nM
- apparent KD of MS2 coat protein (input ligand: none): 2070 nM

Sequence: CGCCGACAUGAGGAUCACCCAUGUCACAACUGGUCAGGAUAUGGUAUGAUUUGGCUAUUGCCAGAAGGGACCUCAG [JR_SS001_Sub712] (Eterna round: R96, puzzle: Same State 1)
- apparent KD of MS2 coat protein (input ligand: FMN 200 uM): 22.4 nM
- apparent KD of MS2 coat protein [1]: 28.8 nM
- apparent KD of MS2 coat protein (input ligand: none): 30.6 nM

Sequence: CGCUGUCACGCAGGAUAUGCAUUGGAUUACAAUGCAGAAGGGCGAUUACAUGAGGAUCACCCAUGUGUAGACAGUGAAGAAGAG [MOD JMF Solution 3] (Eterna round: R96, puzzle: Same State NG 1)
- apparent KD of MS2 coat protein (input ligand: FMN 200 uM): 32.4 nM
- apparent KD of MS2 coat protein [1]: 271 nM
- apparent KD of MS2 coat protein (input ligand: none): 386 nM

Sequence: CGGAGACGUCAAGGAUAUGCUACCGUUUCGGUAGCAGAAGGUGAUCACAUGAGGAUCACCCAUGUAUGCAUGCGUGAGCGUGCU [JL SSNG1 3.51] (Eterna round: R96, puzzle: Same State NG 1)
- apparent KD of MS2 coat protein (input ligand: FMN 200 uM): 125 nM
- apparent KD of MS2 coat protein [1]: 99.2 nM
- apparent KD of MS2 coat protein (input ligand: none): 21.1 nM

Sequence: CGGCGCUGUCGAGAGGAUAUGCGGUGAUGGACAUGAGGAUCACCCAUGUUAGCGAUAGCAUCACGGUAGAAGGCUCUACGGCUGG [Soteed Omei mod 20] (puzzle: Same State 2)
- apparent KD of MS2 coat protein [2]: 10.7 nM
- apparent KD of MS2 coat protein [3]: 18.6 nM
- apparent KD of MS2 coat protein [4]: 26.2 nM

Sequence: CGGCGCUGUCGAGAGGAUAUGCGGUGAUGGACAUGAGGAUCACCCAUGUUAGCGAUAGCAUCACGGUAGAAGGCUCUACGGCUUG [Soteed Omei mod 21] (puzzle: Same State 2)
- apparent KD of MS2 coat protein [3]: 31 nM

Sequence: CGGGACAUGAGGAUCACCCAUGUGCCGAAAGGCACAAGAACGCAGGAUAUAGGGCAAAGACAGCCCUAGAAGGGUGACCUUGUG [Tiesralabe] (Eterna round: R96, puzzle: Same State NG 3)
- apparent KD of MS2 coat protein (input ligand: FMN 200 uM): 197 nM
- apparent KD of MS2 coat protein [1]: 21.3 nM
- apparent KD of MS2 coat protein (input ligand: none): 117 nM

Sequence: CGGGUACAUGAGGAUCACCCAUGUUGGAGUAAUGCAGGAUAUGUGGGACGAGGUUAUAAAACAGAAGGGCAAGGAG [JR_SS!_Sub011] (puzzle: Same State 1)
- apparent KD of MS2 coat protein [2]: 53.5 nM
- apparent KD of MS2 coat protein [3]: 62.9 nM
- apparent KD of MS2 coat protein [4]: 67.2 nM

Sequence: CGGUGUGAGAAAGGAUAUGUUCGCUAGUCGCGAGCAGAAGGUUCUGCGCGCUGCUAUACGAACAUGAGGAUCACCCAUGUAAAA [Laqu] (Eterna round: R96, puzzle: Same State NG 1)
- apparent KD of MS2 coat protein (input ligand: FMN 200 uM): 130 nM
- apparent KD of MS2 coat protein [1]: 11.8 nM
- apparent KD of MS2 coat protein (input ligand: none): 69.2 nM

Sequence: CGUAGGUAGCUGGAGGAUAUCCGAGUGGUAACAUGAGGAUCACCCAUGUGAUGAAAGGAACAUGAGGAGAAGGCUAGCUGCCUGC [JL-ss2-3.11 JL mod] (puzzle: Same State 2)
- apparent KD of MS2 coat protein [2]: 15.4 nM
- apparent KD of MS2 coat protein [3]: 29 nM
- apparent KD of MS2 coat protein [4]: 30.9 nM

Sequence: CGUAGGUAGCUGGAGGAUAUUCGAGUGGUAACAUGAGGAUCACCCAUGUGGAGUUAGUUACAUGAGGAGAAGGCUAGCUGCCUGC [JL-ss2-3.17 JL mod] (puzzle: Same State 2)
- apparent KD of MS2 coat protein [2]: 36.7 nM
- apparent KD of MS2 coat protein [3]: 61 nM
- apparent KD of MS2 coat protein [4]: 74.5 nM

Sequence: CGUAGGUAGCUGGAGGAUAUUCGAGUGGUAACAUGAGGAUCACCCAUGUGGAGUUAUUUACAUGAGGAGAAGGCUAGCUGCCUGC [JL-ss2-3.16 JL mod] (puzzle: Same State 2)
- apparent KD of MS2 coat protein [2]: 14.3 nM
- apparent KD of MS2 coat protein [3]: 107 nM
- apparent KD of MS2 coat protein [4]: 136 nM

Sequence: CGUAGGUAGCUGGAGGAUAUUCGAGUGGUAACAUGAGGAUCACCCAUGUGUUGAGAGGUACAUGAGGAGAAGGCUAGCUGCCUGC (puzzle: Same State 2)
- apparent KD of MS2 coat protein [2]: 17.6 nM
- apparent KD of MS2 coat protein [3]: 58.2 nM
- apparent KD of MS2 coat protein [4]: 75.1 nM

Sequence: CGUCCAGCCUGAGCUGGACAAAAGCAUGUACAUGAGGAUCACCCAUGUUCAUGUACAAGCUUUUUGCUCGUCUUAUA [salish99_208a_r3_046] (puzzle: Sensor for hsa-mir-208a)
- apparent KD of MS2 coat protein [2]: 585 nM
- apparent KD of MS2 coat protein [3]: 13.9 nM
- apparent KD of MS2 coat protein [4]: 479 nM

Sequence: CGUCCAGCCUGAGCUGGACAAAAGCAUGUACAUGAGGAUCACCCAUGUUCAUGUACAAGCUUUUUGCUCGUCUUAUG [salish99_208a_r3_054] (Eterna round: R96, puzzle: Sensor for hsa-mir-208a)
- apparent KD of MS2 coat protein (input ligand: FMN 200 uM): 485 nM
- apparent KD of MS2 coat protein [1]: 16.4 nM
- apparent KD of MS2 coat protein (input ligand: none): 607 nM

Sequence: CGUCCAGCCUGAGCUGGACAAAAGCAUGUACAUGAGGAUCACCCAUGUUCAUGUACAAGCUUUUUGCUCGUCUUAUG [salish99_208a_r3_054] (puzzle: Sensor for hsa-mir-208a)
- apparent KD of MS2 coat protein [2]: 662 nM
- apparent KD of MS2 coat protein [3]: 17.9 nM
- apparent KD of MS2 coat protein [4]: 1110 nM

Sequence: CGUCCGGCCUGUGCUGGCCGGUAUCAUGUACAUGAGGAUCACCCAUGUUCAUGUGCAGGCUUUUUGCUCGUCUUGUG [salish99_mir208a_012] (puzzle: Sensor for hsa-mir-208a)
- apparent KD of MS2 coat protein [2]: 20.5 nM
- apparent KD of MS2 coat protein [3]: 12.8 nM
- apparent KD of MS2 coat protein [4]: 19.9 nM

Sequence: CGUCCGGCCUGUGCUGGCCGGUGGCUUGUACAUGAGGAUCACCCAUGUUCUUGUGCUGGCUUGUUGCUCGUCUUGUG [salish99_mir208a_r3_022] (puzzle: Sensor for hsa-mir-208a)
- apparent KD of MS2 coat protein [2]: 27.9 nM
- apparent KD of MS2 coat protein [3]: 19.1 nM
- apparent KD of MS2 coat protein [4]: 33.4 nM

Sequence: CGUCCGGCCUGUGCUGGCCGGUUGCUUGUACAUGAGGAUCACCCAUGUUCAUGUGCAGGCUUUUUGCUCGUCUUGUG [salish99_mir208a_015] (puzzle: Sensor for hsa-mir-208a)
- apparent KD of MS2 coat protein [2]: 38.3 nM
- apparent KD of MS2 coat protein [3]: 31.1 nM
- apparent KD of MS2 coat protein [4]: 45.8 nM

Sequence: CGUCGUUUGAUAGGAUAUCGCUAUACAUGAGGAUCACCCAUGUUUACCACGCUGGUUUUUCUUUCCGAGAAGGAUUCUGAUGUU [salish99_SSNG02_r04_022] (Eterna round: R96, puzzle: Same State NG 2)
- apparent KD of MS2 coat protein (input ligand: FMN 200 uM): 30.9 nM
- apparent KD of MS2 coat protein [1]: 23.8 nM
- apparent KD of MS2 coat protein (input ligand: none): 33.5 nM

Sequence: CGUCGUUUGCUAGGAUAUCGCUAUACAUGAGGAUCACCCAUGUUUACCACGCUGGUUUUUCAUACCGAGAAGGAUUCUGAUGUU [salish99_SSNG02_r04_018] (Eterna round: R96, puzzle: Same State NG 2)
- apparent KD of MS2 coat protein (input ligand: FMN 200 uM): 24 nM
- apparent KD of MS2 coat protein [1]: 28.7 nM
- apparent KD of MS2 coat protein (input ligand: none): 34.1 nM

Sequence: CGUUGUUCCUGAGGAUAUCAGUUGUUUGCAUUAUGAGAAGGCAGUACAUGAGGAUCACCCAUGUUGGGAUUUGAUAGAAUGACG [JR_SSNG1_Sub008] (Eterna round: R96, puzzle: Same State NG 1)
- apparent KD of MS2 coat protein (input ligand: FMN 200 uM): 221 nM
- apparent KD of MS2 coat protein [1]: 113 nM
- apparent KD of MS2 coat protein (input ligand: none): 226 nM

Sequence: CUAAAACAUGAGGAUCACCCAUGUCAACAAAGUCGAGGAUAUGGGCAAAUAAAAUAAGAACCAGAAGGCGAAUAAG [salish99_SS1_r3_013] (puzzle: Same State 1)
- apparent KD of MS2 coat protein [2]: 81.9 nM
- apparent KD of MS2 coat protein [3]: 274 nM
- apparent KD of MS2 coat protein [4]: 543 nM
